Measurements published in article PMC11703230 (bioRxiv, 2025).

How the values were obtained:
Assay in all cases: cross-linking
cross-linking = target: the molecule itself
[1] = target: Sir3 winged helix deletion (Sir3 1-850) (S. cerevisiae, UniProt P06701 1-850)
[2] = target: Sir2 (untagged final), full-length (S. cerevisiae, UniProt P06700 1-562)
Chain of Sir2 (untagged final), full-length (P06700 whole entry): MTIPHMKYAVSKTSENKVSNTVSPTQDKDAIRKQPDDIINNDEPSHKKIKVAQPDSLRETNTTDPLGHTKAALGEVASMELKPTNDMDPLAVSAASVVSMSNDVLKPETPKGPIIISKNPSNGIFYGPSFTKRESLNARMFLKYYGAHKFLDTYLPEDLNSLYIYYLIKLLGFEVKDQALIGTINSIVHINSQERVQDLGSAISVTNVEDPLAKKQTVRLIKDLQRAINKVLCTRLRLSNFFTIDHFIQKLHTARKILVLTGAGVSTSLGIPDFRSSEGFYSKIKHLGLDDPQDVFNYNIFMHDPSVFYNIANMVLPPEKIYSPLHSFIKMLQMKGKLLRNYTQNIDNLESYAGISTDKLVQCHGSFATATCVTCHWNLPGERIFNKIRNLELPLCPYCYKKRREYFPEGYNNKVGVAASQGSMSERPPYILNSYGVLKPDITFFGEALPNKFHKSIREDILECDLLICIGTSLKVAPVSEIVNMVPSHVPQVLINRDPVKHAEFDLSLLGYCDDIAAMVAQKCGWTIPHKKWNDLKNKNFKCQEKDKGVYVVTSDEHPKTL

Chain of Sir3 winged helix deletion (Sir3 1-850) (P06701 1-850, stated change not applied): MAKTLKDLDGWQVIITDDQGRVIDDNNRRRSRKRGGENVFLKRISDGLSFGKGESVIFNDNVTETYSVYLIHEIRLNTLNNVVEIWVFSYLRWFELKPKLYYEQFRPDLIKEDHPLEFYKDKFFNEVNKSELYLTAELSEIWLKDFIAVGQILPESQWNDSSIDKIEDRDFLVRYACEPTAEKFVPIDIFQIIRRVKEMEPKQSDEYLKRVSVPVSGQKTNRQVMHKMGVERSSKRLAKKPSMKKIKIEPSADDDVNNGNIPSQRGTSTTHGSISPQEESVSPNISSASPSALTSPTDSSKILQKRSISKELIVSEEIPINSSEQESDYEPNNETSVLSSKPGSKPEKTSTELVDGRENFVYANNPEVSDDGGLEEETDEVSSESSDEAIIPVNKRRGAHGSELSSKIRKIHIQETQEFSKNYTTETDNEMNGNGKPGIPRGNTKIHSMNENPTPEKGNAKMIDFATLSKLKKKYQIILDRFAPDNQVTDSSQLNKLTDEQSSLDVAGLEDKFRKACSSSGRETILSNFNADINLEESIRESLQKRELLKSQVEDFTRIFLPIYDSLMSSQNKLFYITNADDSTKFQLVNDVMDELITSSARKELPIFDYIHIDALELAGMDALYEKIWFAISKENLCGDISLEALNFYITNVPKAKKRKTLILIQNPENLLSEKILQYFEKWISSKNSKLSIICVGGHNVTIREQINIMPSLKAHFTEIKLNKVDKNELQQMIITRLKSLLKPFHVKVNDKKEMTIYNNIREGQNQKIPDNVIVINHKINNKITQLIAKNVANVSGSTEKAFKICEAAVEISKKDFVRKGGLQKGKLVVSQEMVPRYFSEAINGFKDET

binding result [1]	binding result [2]	Binder	binding result (cross-linking)
binds		MBP-Sir4(744-1358) (domain or fragment, S. cerevisiae, UniProt P11978 744-1358, looked up) PGKMELVYVSDSDDSSSDNDSLTDLESLSSGESNEIKVTNDLDTSAEKDQIQAGKWFDPVLDWRKSDRELTKNILWRIADKTTYDKETITDLIEQGIPKHSYLSGNPLTSVTNDICSVENYETSSAFFYQQVHKKDRLQYLPLYAVSTFENTNNTEKNDVTNKNINIGKHSQEQNSSSAKPSQIPTVSSPLGFEETKLSTTPTKSNRRVSHSDTNSSKPKNTKENLSKSSWRQEWLANLKLISVSLVDEFPSELSDSDRQIINEKMQLLKDIFANNLKSAISNNFRESDIIILKGEIEDYPMSSEIKIYYNELQNKPDAKKARFWSFMKTQRFVSNMGFDIQKSCEPVSISTSVKPHVVEPEHMADAKIMPKDILQITKKPLMVKNVKPSSPPDVKSLVQLSTMETKTLPEKKQFDSIFNSNKAKIIPGNGKHASENISLSFSRPASYGYFSVGKRVPIVEDRRVKQLDDITDSNTTEILTSVDVLGTHSQTGTQQSNMYTSTQKTELEIDNKDSVTECSKDMKEDGLSFVDIVLSKAASALDEKEKQLAVANEIIRSLSDEVMRNEIRITSLQGDLTFTKKCLENARSQISEKDAKINKLMEKDFQVNKEIKPY	binds
	binds	MBP-Sir4(1150-1358) (domain or fragment, S. cerevisiae, UniProt P11978 1150-1358, looked up) KTLPEKKQFDSIFNSNKAKIIPGNGKHASENISLSFSRPASYGYFSVGKRVPIVEDRRVKQLDDITDSNTTEILTSVDVLGTHSQTGTQQSNMYTSTQKTELEIDNKDSVTECSKDMKEDGLSFVDIVLSKAASALDEKEKQLAVANEIIRSLSDEVMRNEIRITSLQGDLTFTKKCLENARSQISEKDAKINKLMEKDFQVNKEIKPY	
